The values that follow are results of earlier work, collected in PMC10173724.

The target of the series is FABP3 (Homo sapiens) (UniProt P05413).

What is called Kd is the constant that tells how readily two partners part at equilibrium. Regarding “alpha-synuclein C-terminal peptide Y133F/Y136F 130-140 (from UniProt P37840)”, the Kd was 2.1 nM.
